Measurements: patent US20260242735A1

What was measured:
human CD33 Q228A (human) = human CD33 Q228A (human) (UniProt P20138); assay: alanine scan, flow cytometry
human CD33 P235A (human) = human CD33 P235A (human) (UniProt P20138); assay: alanine scan, flow cytometry
human CD33 G218A (human) = human CD33 G218A (human) (UniProt P20138); assay: alanine scan, flow cytometry
human CD33 H259A (human) = human CD33 H259A (human) (UniProt P20138); assay: alanine scan, flow cytometry
human CD33 C212A (human) = human CD33 C212A (human) (UniProt P20138); assay: alanine scan, flow cytometry
human CD33 F243A (human) = human CD33 F243A (human) (UniProt P20138); assay: alanine scan, flow cytometry
Chain of human CD33 F243A (human) (P20138 18-364 F243A limits assumed): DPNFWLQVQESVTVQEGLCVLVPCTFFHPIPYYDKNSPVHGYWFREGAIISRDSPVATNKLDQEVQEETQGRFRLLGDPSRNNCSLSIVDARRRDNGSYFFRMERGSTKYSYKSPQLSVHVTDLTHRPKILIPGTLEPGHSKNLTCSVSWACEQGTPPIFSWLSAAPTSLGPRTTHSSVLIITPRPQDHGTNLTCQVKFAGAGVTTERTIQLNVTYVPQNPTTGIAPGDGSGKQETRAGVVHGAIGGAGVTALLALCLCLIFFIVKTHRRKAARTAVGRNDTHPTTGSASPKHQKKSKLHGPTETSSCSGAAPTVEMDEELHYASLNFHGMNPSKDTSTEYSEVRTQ

human CD33 R254A (human) = human CD33 R254A (human) (UniProt P20138); assay: alanine scan, flow cytometry
human CD33 Q204A (human) = human CD33 Q204A (human) (UniProt P20138); assay: alanine scan, flow cytometry
human CD33 N209A (human) = human CD33 N209A (human) (UniProt P20138); assay: alanine scan, flow cytometry
Chain of human CD33 N209A (human) (P20138 18-364 N209A limits assumed): as the sequence (P20138 18-364 F243A limits assumed) above, with N192A, A226F counted along it

human CD33 G266A (human) = human CD33 G266A (human) (UniProt P20138); assay: alanine scan, flow cytometry
human CD33 T239A (human) = human CD33 T239A (human) (UniProt P20138); assay: alanine scan, flow cytometry
human CD33 G220A (human) = human CD33 G220A (human) (UniProt P20138); assay: alanine scan, flow cytometry
human CD33 I198A (human) = human CD33 I198A (human) (UniProt P20138); assay: alanine scan, flow cytometry
human CD33 N237A (human) = human CD33 N237A (human) (UniProt P20138); assay: alanine scan, flow cytometry
human CD33 P203A (human) = human CD33 P203A (human) (UniProt P20138); assay: alanine scan, flow cytometry
Chain of human CD33 P203A (human) (P20138 18-364 P203A limits assumed): as the sequence (P20138 18-364 F243A limits assumed) above, with P186A, A226F counted along it

human CD33 E224A (human) = human CD33 E224A (human) (UniProt P20138); assay: alanine scan, flow cytometry
human CD33 T223A (human) = human CD33 T223A (human) (UniProt P20138); assay: alanine scan, flow cytometry
human CD33 V196A (human) = human CD33 V196A (human) (UniProt P20138); assay: alanine scan, flow cytometry
human CD33 S248A (human) = human CD33 S248A (human) (UniProt P20138); assay: alanine scan, flow cytometry
Chain of human CD33 S248A (human) (P20138 18-364 S248A limits assumed): as the sequence (P20138 18-364 F243A limits assumed) above, with A226F, S231A counted along it

human CD33 G247A (human) = human CD33 G247A (human) (UniProt P20138); assay: alanine scan, flow cytometry
human CD33 A217S (human) = human CD33 A217S (human) (UniProt P20138); assay: alanine scan, flow cytometry
human CD33 D205A (human) = human CD33 D205A (human) (UniProt P20138); assay: alanine scan, flow cytometry
human CD33 A269S (human) = human CD33 A269S (human) (UniProt P20138); assay: alanine scan, flow cytometry
human CD33 P201A (human) = human CD33 P201A (human) (UniProt P20138); assay: alanine scan, flow cytometry
human CD33 Q213A (human) = human CD33 Q213A (human) (UniProt P20138); assay: alanine scan, flow cytometry
human CD33 I262A (human) = human CD33 I262A (human) (UniProt P20138); assay: alanine scan, flow cytometry
Chain of human CD33 I262A (human) (P20138 18-364 I262A limits assumed): as the sequence (P20138 18-364 F243A limits assumed) above, with A226F, I245A counted along it

human CD33 H206A (human) = human CD33 H206A (human) (UniProt P20138); assay: alanine scan, flow cytometry
human CD33 I199A (human) = human CD33 I199A (human) (UniProt P20138); assay: alanine scan, flow cytometry
human CD33 G260A (human) = human CD33 G260A (human) (UniProt P20138); assay: alanine scan, flow cytometry
human CD33 T232A (human) = human CD33 T232A (human) (UniProt P20138); assay: alanine scan, flow cytometry
human CD33 L270A (human) = human CD33 L270A (human) (UniProt P20138); assay: alanine scan, flow cytometry
human CD33 F216A (human) = human CD33 F216A (human) (UniProt P20138); assay: alanine scan, flow cytometry
human CD33 R225A (human) = human CD33 R225A (human) (UniProt P20138); assay: alanine scan, flow cytometry
human CD33 T268A (human) = human CD33 T268A (human) (UniProt P20138); assay: alanine scan, flow cytometry
human CD33 P55A (human) = human CD33 P55A (human) (UniProt P20138); assay: alanine scan, flow cytometry, HEK293-T
Chain of human CD33 P55A (human) (P20138 18-364 P55A limits assumed): as the sequence (P20138 18-364 F243A limits assumed) above, with P38A, A226F counted along it

human CD33 L78A (human) = human CD33 L78A (human) (UniProt P20138); assay: alanine scan, flow cytometry, HEK293-T
Chain of human CD33 L78A (human) (P20138 18-364 L78A limits assumed): as the sequence (P20138 18-364 F243A limits assumed) above, with L61A, A226F counted along it

human CD33 N160A (human) = human CD33 N160A (human) (UniProt P20138); assay: alanine scan, flow cytometry, HEK293-T
human CD33 V56A (human) = human CD33 V56A (human) (UniProt P20138); assay: alanine scan, flow cytometry, HEK293-T
Chain of human CD33 V56A (human) (P20138 18-364 V56A limits assumed): as the sequence (P20138 18-364 F243A limits assumed) above, with V39A, A226F counted along it

human CD33 S164A (human) = human CD33 S164A (human) (UniProt P20138); assay: alanine scan, flow cytometry, HEK293-T
human CD33 R69A (human) = human CD33 R69A (human) (UniProt P20138); assay: alanine scan, flow cytometry, HEK293-T
human CD33 K146A (human) = human CD33 K146A (human) (UniProt P20138); assay: alanine scan, flow cytometry, HEK293-T
Chain of human CD33 K146A (human) (P20138 18-364 K146A limits assumed): as the sequence (P20138 18-364 F243A limits assumed) above, with K129A, A226F counted along it

human CD33 R122A (human) = human CD33 R122A (human) (UniProt P20138); assay: alanine scan, flow cytometry, HEK293-T
human CD33 E154A (human) = human CD33 E154A (human) (UniProt P20138); assay: alanine scan, flow cytometry, HEK293-T
human CD33 F61A (human) = human CD33 F61A (human) (UniProt P20138); assay: alanine scan, flow cytometry, HEK293-T
human CD33 L153A (human) = human CD33 L153A (human) (UniProt P20138); assay: alanine scan, flow cytometry, HEK293-T
Chain of human CD33 L153A (human) (P20138 18-364 L153A limits assumed): as the sequence (P20138 18-364 F243A limits assumed) above, with L136A, A226F counted along it

human CD33 A108S (human) = human CD33 A108S (human) (UniProt P20138); assay: alanine scan, flow cytometry, HEK293-T
Chain of human CD33 A108S (human) (P20138 18-364 A108S limits assumed): as the sequence (P20138 18-364 F243A limits assumed) above, with A91S, A226F counted along it

human CD33 S181A (human) = human CD33 S181A (human) (UniProt P20138); assay: alanine scan, flow cytometry, HEK293-T
human CD33 R91A (human) = human CD33 R91A (human) (UniProt P20138); assay: alanine scan, flow cytometry, HEK293-T
human CD33 A168S (human) = human CD33 A168S (human) (UniProt P20138); assay: alanine scan, flow cytometry, HEK293-T
human CD33 S71A (human) = human CD33 S71A (human) (UniProt P20138); assay: alanine scan, flow cytometry, HEK293-T

Chain of human CD33 Q228A (human) (P20138 18-364 Q228A limits assumed): as the sequence (P20138 18-364 F243A limits assumed) above, with Q211A, A226F counted along it
Chain of human CD33 G218A (human) (P20138 18-364 G218A limits assumed): as the sequence (P20138 18-364 F243A limits assumed) above, with G201A, A226F counted along it
Chain of human CD33 P235A (human) (P20138 18-364 P235A limits assumed): as the sequence (P20138 18-364 F243A limits assumed) above, with P218A, A226F counted along it

Refmab #7 (WM53) (antibody)
Mean % WT Binding (human CD33 Q228A (human)): 115 % WT binding | Mean % WT Binding (human CD33 P235A (human)): 112 % WT binding | Mean % WT Binding (human CD33 G218A (human)): 123 % WT binding | Mean % WT Binding (human CD33 H259A (human)): 119 % WT binding | Mean % WT Binding (human CD33 C212A (human)): 17.8 % WT binding | Mean % WT Binding (human CD33 F243A (human)): 91.8 % WT binding | Mean % WT Binding (human CD33 R254A (human)): 126 % WT binding | Mean % WT Binding (human CD33 Q204A (human)): 117 % WT binding | Mean % WT Binding (human CD33 N209A (human)): 128 % WT binding | Mean % WT Binding (human CD33 G266A (human)): 110 % WT binding | Mean % WT Binding (human CD33 T239A (human)): 112 % WT binding | Mean % WT Binding (human CD33 G220A (human)): 120 % WT binding | Mean % WT Binding (human CD33 I198A (human)): 111 % WT binding | Mean % WT Binding (human CD33 N237A (human)): 116 % WT binding | Mean % WT Binding (human CD33 P203A (human)): 113 % WT binding | Mean % WT Binding (human CD33 E224A (human)): 126 % WT binding | Mean % WT Binding (human CD33 T223A (human)): 110 % WT binding | Mean % WT Binding (human CD33 V196A (human)): 117 % WT binding | Mean % WT Binding (human CD33 S248A (human)): 113 % WT binding | Mean % WT Binding (human CD33 G247A (human)): 123 % WT binding | Mean % WT Binding (human CD33 A217S (human)): 114 % WT binding | Mean % WT Binding (human CD33 D205A (human)): 0.8 % WT binding | Mean % WT Binding (human CD33 A269S (human)): 118 % WT binding | Mean % WT Binding (human CD33 P201A (human)): 110 % WT binding | Mean % WT Binding (human CD33 Q213A (human)): 103 % WT binding | Mean % WT Binding (human CD33 I262A (human)): 119 % WT binding | Mean % WT Binding (human CD33 H206A (human)): 108 % WT binding | Mean % WT Binding (human CD33 I199A (human)): 115 % WT binding | Mean % WT Binding (human CD33 G260A (human)): 87.2 % WT binding | Mean % WT Binding (human CD33 T232A (human)): 95.3 % WT binding | Mean % WT Binding (human CD33 L270A (human)): 99.8 % WT binding | Mean % WT Binding (human CD33 F216A (human)): 112 % WT binding | Mean % WT Binding (human CD33 R225A (human)): 99.8 % WT binding | Mean % WT Binding (human CD33 T268A (human)): 148 % WT binding | Mean % WT Binding (human CD33 P55A (human)): 94.7 % WT binding | Mean % WT Binding (human CD33 L78A (human)): 88.9 % WT binding | Mean % WT Binding (human CD33 N160A (human)): 112 % WT binding | Mean % WT Binding (human CD33 V56A (human)): 117 % WT binding | Mean % WT Binding (human CD33 S164A (human)): 123 % WT binding | Mean % WT Binding (human CD33 R69A (human)): 146 % WT binding | Mean % WT Binding (human CD33 K146A (human)): 91.1 % WT binding | Mean % WT Binding (human CD33 R122A (human)): 25.1 % WT binding | Mean % WT Binding (human CD33 E154A (human)): 108 % WT binding | Mean % WT Binding (human CD33 F61A (human)): 123 % WT binding | Mean % WT Binding (human CD33 L153A (human)): 101 % WT binding | Mean % WT Binding (human CD33 A108S (human)): 120 % WT binding | Mean % WT Binding (human CD33 S181A (human)): 86.7 % WT binding | Mean % WT Binding (human CD33 R91A (human)): 114 % WT binding | Mean % WT Binding (human CD33 A168S (human)): 117 % WT binding | Mean % WT Binding (human CD33 S71A (human)): 104 % WT binding
